We go through one molecule from US20250057881A1 (ROSWELL PARK CANCER INSTITUTE, published 2025).

This test concerns the target T1, HLA-A*02:01 (human).
T1 construct: also called HLA-A2; A2
In words: peptide loaded on Flex-T HLA-A*02:01 monomer by UV exchange; the resulting tetramer stained TCR-transduced T cells. The text has this:
HLA-A2-binding epitope of CLDN6 between CLDN6₁₃₁₋₁₄₀ was predicted using […] database. […] (CLDN6₁₃₂₋₁₄₀) (SEQ ID NO:18) peptide was synthesized by EZBiolab with 82% purity. HLA-A2/peptide monomer was generated with Flex-T HLA-A*02:01 monomer UVX followed by tetramerization using PE-streptavidin according to the manufacturer's instruction (BioLegend). CD8-TCR-or mock-transduced cells were stained with the tetramer followed by anti-CD8 antibody.

B1: CLDN6132-140 peptide (peptide)
peptide: TLIPVCWTA
notes: Synthetic peptide, 82% purity
With B1, the binding result is “binds”.
